The IC50 is the concentration needed to halve the response being measured.

IC50 data for twelve molecules are collected here from US20130052176, “APTAMER FOR NGF AND USE THEREOF” (SHIONOGI & CO., LTD, published 2013).

Data set [1] concerns the target T1, NGF (nerve growth factor) (human, UniProt P01138 P01138:122-241). Put plainly: cell_activity; neurite outgrowth, NGF 0.38 nM; TF-1 IC50 0.146 nM. The settings on record: tags: human NGF; chain copies: 2. The procedure:
(§1) The neurite outgrowth inhibitory activity of the aptamer obtained in Example 1 was evaluated by using Neuroscreen-1 cell, which is a subclone of PC-12 cells.
(§2) The cells (2500 cells per well) were cultured for one day in an RPMI-1640 medium containing 2.5% horse serum and 1.25% fetal bovine serum in a 96 well flat-bottom plate coated with collagen type IV. […] Two days later, the cytoplasm and nuclei were stained using Cellomics Neurite Outgrowth Kit (manufactured by Thermo Scientific), and neurite length per cell was measured by Cellomics ArrayScan VTI (manufactured by Thermo Scientific). With the neurite length per cell obtained by the addition of NGF alone as inhibitory activity 0%, and that of the cell obtained by NGF free culture for 2 days as inhibitory activity 100%, the inhibitory activity of the aptamer was calculated from the neurite length per cell obtained by culturing with the addition of NGF and the aptamer in mixture. When the inhibitory activity was 0% or below, ‘0%’ is indicated.

For data set [2], the target named is T1, NGF (nerve growth factor). As to the kind of experiment: cell_activity; neurite outgrowth, NGF 0.38 nM; TF-1 IC50 0.158 nM. The following applies: tags: human NGF; chain copies: 2. The procedure:
as §1, §2

The target of data set [3] is T1, NGF (nerve growth factor). As to the kind of experiment: cell_activity; neurite outgrowth, NGF 0.38 nM; TF-1 IC50 0.064 nM. The following applies: tags: human NGF; chain copies: 2. Here is the method: as §1, §2
The target in data set [4] is T1, NGF (nerve growth factor). As to the kind of experiment: cell_activity; neurite outgrowth, NGF 0.38 nM; TF-1 IC50 0.069 nM. The following applies: tags: human NGF; chain copies: 2. Here is the method:
as §1, §2

Data set [5] addresses T1, NGF (nerve growth factor). As to the kind of experiment: cell_activity; neurite outgrowth, NGF 0.38 nM; TF-1 IC50 0.177 nM. The following applies: tags: human NGF; chain copies: 2. Here is the method:
as §1, §2

The target of data set [6] is T1, NGF (nerve growth factor). As to the kind of experiment: cell_activity; neurite outgrowth, NGF 0.38 nM; TF-1 IC50 0.122 nM. The settings on record: tags: human NGF; chain copies: 2. The procedure:
as §1, §2

Data set [7] addresses T1, NGF (nerve growth factor). Put plainly: cell_activity; neurite outgrowth, NGF 0.38 nM; TF-1 IC50 0.184 nM. The settings on record: tags: human NGF; chain copies: 2. Here is the method:
as §1, §2

The target of data set [8] is T1, NGF (nerve growth factor). Put plainly: cell_activity; neurite outgrowth, NGF 0.38 nM; TF-1 IC50 0.156 nM. The settings on record: tags: human NGF; chain copies: 2. The procedure: as §1, §2
The target in data set [9] is T1, NGF (nerve growth factor). As to the kind of experiment: cell_activity; neurite outgrowth, NGF 0.38 nM; TF-1 IC50 0.203 nM. The following applies: tags: human NGF; chain copies: 2. The procedure:
as §1, §2

The target in data set [10] is T1, NGF (nerve growth factor). Put plainly: cell_activity; neurite outgrowth, NGF 0.38 nM; TF-1 IC50 0.130 nM. The settings on record: tags: human NGF; chain copies: 2. Here is the method: as §1, §2
For data set [11], the target named is T1, NGF (nerve growth factor). As to the kind of experiment: cell_activity; neurite outgrowth, NGF 0.38 nM; TF-1 IC50 0.055 nM. The settings on record: tags: human NGF; chain copies: 2. The procedure: as §1, §2
The target in the next data set is T2, BDNF (human, UniProt P23560 P23560:129-247).
T2 sequence: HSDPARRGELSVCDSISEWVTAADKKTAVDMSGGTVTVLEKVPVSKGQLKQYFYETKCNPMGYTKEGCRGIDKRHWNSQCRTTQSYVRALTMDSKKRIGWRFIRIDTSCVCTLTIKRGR
Put plainly: cell_activity; TF-1 TrkB/p75 proliferation; SPR showed very fast dissociation. The following applies: tags: R&D Systems; chain copies: 2. The procedure: (§3) The physiological inhibitory activity of the aptamers represented by aptamer IDs: 26(2), 52, 63-65 against BDNF, NT-3, NT-4/5 was evaluated by a growth inhibition assay using TF-1 cells.
(§4) Human receptor genes (TrkB, TrkC, p75) for respective neurotrophic factors were introduced into TF-1 cells (ATCC Number:CRL-2003), which is a human erythroleukemic cell line, by using a retrovirus vector to give cells that highly express these receptors stably. TF-1 cells introduced with TrkB and p75 were used for the evaluation of inhibitory activity against BDNF, TF-1 cells introduced with TrkC and p75 were used for the evaluation against NT-3, and TF-1 cells introduced with TrkB alone were used for the evaluation against NT-4/5. These cells were suspended in an RPMI-1640 medium containing 20% fetal bovine serum, and seeded in a white 96 well flat-bottom plate at 1000 cells (50 μL) per well. […] With the amount of luminescence per well obtained by the addition of BDNF or NT-3 or NT-4/5 alone and culture of the cells for 3 days as inhibitory activity 0%, and that of the cell obtained by culture for 3 days without addition of BDNF or NT3 or NT-4/5 as inhibitory activity 100%, the inhibitory activity of the aptamer was calculated from the amount of luminescence per well obtained by culturing with the addition of BDNF or NT3 or NT-4/5 and the aptamer in mixture. […]

Another data set addresses T3, NT-4/5 (human, UniProt P34130 P34130:81-210).
T3 sequence: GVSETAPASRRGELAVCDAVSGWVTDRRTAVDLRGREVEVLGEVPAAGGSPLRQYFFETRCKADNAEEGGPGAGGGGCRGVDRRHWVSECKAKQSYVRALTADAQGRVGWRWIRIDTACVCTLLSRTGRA
As to the kind of experiment: cell_activity; TF-1 TrkB proliferation; SPR showed very fast dissociation. The following applies: tags: R&D Systems; chain copies: 2. The procedure: as §3, §4

T1 sequence (P01138 122-241, one chain of several): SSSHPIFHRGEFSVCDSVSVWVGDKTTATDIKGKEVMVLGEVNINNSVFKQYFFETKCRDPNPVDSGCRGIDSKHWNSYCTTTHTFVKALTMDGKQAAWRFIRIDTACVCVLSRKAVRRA

B1: aptamer ID 26(45) (ssRNA)
RNA: GGGAGACUCGCCAGAGUUGAAAGAAACCCAAAUAAGUGUGCGCAC
modifications: 5' and 3' idT; 2'-OMe purines except ribo g3,g19,a20,a26; 2'-OMe c7,c9,c11,c12,u17,u33,c45; other pyrimidines 2'-F
For B1, in data set [1], the IC50 amounted to 0.238 nM.

B2: aptamer ID 26(27) (mixed)
RNA: GGGAGACUCGCCAGAGUUGAAAGAAACCCAAAUAAGUGUGCGCAC
modifications: as 26(19) (5' and 3' idT; 2'-F pyrimidines; 2'-OMe purines except ribo g3,g19,a20,a26) but c29 is dC
The molecule B2 had an IC50 in [2] of 0.15 nM.

B3: aptamer ID 26(65) (mixed)
RNA: GGGAGACUCGCCAGAGUUGAAAGAAACCCAAAUAAGUGUGCGCAC
modifications: 5' PEG80TS4 via ssH linker; 3' idT; 2'-OMe purines except ribo g3,g19,a20,a26; 2'-F c28,c41,c43; dC27,dC29; other pyrimidines 2'-OMe
In [3], B3 had a concentration for half-maximal inhibition (IC50) of 0.091 nM.

B4: aptamer ID 26(48) (ssRNA)
RNA: GGGAGACUCGCCAGAGUUGAAAGAAACCCAAAUAAGUGUGCGCAC
modifications: 5' and 3' idT; 2'-OMe purines except ribo g3,g19,a20,a26; 2'-OMe c7,c11,c12,u17,u18,u33,u37,c45; other pyrimidines 2'-F
Molecule B4 returned an IC50 in data set [4] of 0.053 nM.

B5: aptamer ID 26(26) (mixed)
RNA: GGGAGACUCGCCAGAGUUGAAAGAAACCCAAAUAAGUGUGCGCAC
modifications: as 26(19) (5' and 3' idT; 2'-F pyrimidines; 2'-OMe purines except ribo g3,g19,a20,a26) but u17 is dT
Molecule B5 returned an IC50 in data set [5] of 0.285 nM.

B6: aptamer ID 26(56) (mixed)
RNA: GGGAGACUCGCCAGAGUUGAAAGAAACCCAAAUAAGUGUGCGCAC
modifications: 5' and 3' idT; 2'-OMe purines except ribo g3,g19,a20,a26; 2'-F c27,c28,c41,c43; dC29,dU39; other pyrimidines 2'-OMe
B6: in data set [6], half-maximal inhibition (IC50) required 0.154 nM.

B7: aptamer ID 26(28) (mixed)
RNA: GGGAGACUCGCCAGAGUUGAAAGAAACCCAAAUAAGUGUGCGCAC
modifications: as 26(19) (5' and 3' idT; 2'-F pyrimidines; 2'-OMe purines except ribo g3,g19,a20,a26) but u33 is dT
B7: in data set [7], the IC50 worked out at 0.2 nM.

B8: aptamer ID 26(24) (mixed)
RNA: GGGAGACUCGCCAGAGUUGAAAGAAACCCAAAUAAGUGUGCGCAC
modifications: as 26(19) (5' and 3' idT; 2'-F pyrimidines; 2'-OMe purines except ribo g3,g19,a20,a26) but c11 is dC
In data set [8], B8 displayed an IC50 of 0.226 nM.

B9: aptamer ID 26(25) (mixed)
RNA: GGGAGACUCGCCAGAGUUGAAAGAAACCCAAAUAAGUGUGCGCAC
modifications: as 26(19) (5' and 3' idT; 2'-F pyrimidines; 2'-OMe purines except ribo g3,g19,a20,a26) but c12 is dC
In data set [9], B9 registered a half-maximal inhibitory concentration (IC50) of 0.29 nM.

B10: aptamer ID 26(57) (mixed)
RNA: GGGAGACUCGCCAGAGUUGAAAGAAACCCAAAUAAGUGUGCGCAC
modifications: 5' and 3' idT; 2'-OMe purines except ribo g3,g19,a20,a26; 2'-F c27,c28,u39,c43; dC29,dC41; other pyrimidines 2'-OMe
On to B10, for which, in data set [10], half-maximal inhibition (IC50) required 0.213 nM.

B11: aptamer ID 26(60) (ssRNA)
RNA: GGGAGACUCGCCAGAGUUGAAAGAAACCCAAAUAAGUGUGCGCAC
modifications: 5' and 3' idT; 2'-OMe purines except ribo g3,g19,a20 and 2'-F a26; 2'-F c27,c28,c29,u39,c41,c43; other pyrimidines 2'-OMe
In turn, B11 came in with an IC50 in data set [11] of 0.105 nM.

B12: aptamer ID 26(2) (ssRNA)
RNA: GGGAGACUCGCCAGAGUUGAAAGAAACCCAAAUAAGUGUGCGCAC
modifications: 5' and 3' idT; 2'-F all pyrimidines; 2'-OMe purines except ribo g3,g5,g19,a20,a21,a22,a24,a26
For B12, the IC50 is greater than 1000 nM with BDNF and greater than 300 nM in the data set with NT-4/5.
